Positions of bridges follow the written chain, without caps; N, C: chain ends. Residues, ends and D or L forms follow the SMILES beside them. *: point of attachment. NODAGA = O=C(O)CN1CCN(CC(=O)O)CCN(C(CCC(=O)*)C(=O)O)CC1; NOTA = O=C(O)CN1CCN(CC(=O)O)CCN(CC(=O)*)CC1; AEEA = NCCOCCOCC(=O)O
Legend:
[1] = in vivo; conditions: rat; for SUV / SUV at 2 h: both sexes, Sprague-Dawley, total radioactivity; for SUV / SUV at 2 h / Uptake in most of the organs (SUV): iv; for SUV at 2 h: Uptake within 120 min in blood, heart, lung, pancreas, adrenal gland, small intestine, large intestine, testis, muscle and brain (SUV)
Procedure: Animal studies were performed using healthy female and male Sprague–Dawley rats: one male and one female animal per time point and tracer (Table 1). The animal experiments were approved by the local Ethics Committee for Animal Research and performed in accordance with local institutional and Swedish national rules and regulations. The animals were kept at a constant temperature (20 °C) and humidity (50%) in a 12-h light-dark cycle and given free access to food and water.
(§1) [^68Ga]Ga-NO2A-Col or [^68Ga]Ga-NODAGA-Col was injected into the tail vein of rats as a bolus with 500 µL phosphate-buffered saline (pH 7.4) as the vehicle (Table 1). The injected amount of the peptides was 0.8 ± 0.2 nanomoles. The animals were euthanized by a CO2–O2 mixture at 5, 10, 20, 40, 60 and 120 min post-injection. The radioactivity of the excised organs was measured in a well-type NaI(Tl) scintillation counter, applying correction for dead-time and radioactivity decay. The weight of the tissues was determined simultaneously. The remaining carcass was also measured in order to monitor the radioactivity elimination and recovery. Samples from blood, heart, lung, liver, spleen, adrenal glands, kidneys, intestines, with or without contents, muscle, testis, bone, brain, pancreas, urine bladder and bone marrow were collected. The radioactivity readings were decay-corrected to the time of the injection, and the results were expressed as standardized uptake values (SUV; Equation (1)), where the radioactivity of an organ and injected radioactivity was expressed in MBq, and the weight of a rat and organ was expressed in g. (1) SUV=Radioactivityorgan×weightrat/Radioactivityinjected×weightorgan

[2] = rat, in vivo, iv
Procedure: as §1, with “SUV=Radioactivityorgan×weightrat/Radioactivityinjected×weightorgan […]” for “SUV=Radioactivityorgan×weightrat/Radioactivityinjected×weightorgan”

[3] = parameters: species or system human; conditions: in vivo
Procedure: Human organ and total body absorbed and effective dose estimates were calculated according to the Medical Internal Radionuclide Dose (MIRD) procedure using the measured residence times and the dose rate S-values. The SUV values in rat were first multiplied with the appropriate radioactivity decay factor dependent on the time point of the data post-injection, then multiplied by standard organ masses and divided by the standard total-body weight for the standard adult man phantom obtained from the OLINDA/EXM 1.1 software (Organ Level Internal Dose Assessment Code, Vanderbilt University, Nashville, TN, USA, 2007). The values obtained correspond to the fraction of injected radioactivity (%IA) per organ in man as a function of time (Equation (2), where SUVA is the SUVs of rat organs; gorgan and kgTBweight are respectively the standard organ weight and standard total body weight of a human). (2) (%IAOrgan)human=SUVA×(gorgan/kgTBweight)human
The cumulative radioactivity for the organs was determined by integrating the area under the time-radioactivity curves for each organ using trapezoidal approximation of the collected kinetic data, followed by extrapolation of remaining points from the last time point to infinity by a single exponential fit. The residence time for each organ is equal to the number of disintegrations (MBq × h/MBq). Bone marrow residence time was assessed according to the bone marrow blood model. The residence time for the remaining carcass was calculated in the same way as for the other organs, and this value was used as input in the OLINDA software as “remainder”. The “remainder” of the body residence time was calculated from SUV due to radioactivity measured in the rest of the body after the removal of the source organs and tail. The difference between the theoretical residence time and the calculated residence time of the source organs plus the remainder of the body was assumed to have been in the tail or excreted. The kidney absorbed dose was calculated based on a multi-region kidney model phantom. The total target organ absorbed dose (D) is contributed by all source organs and is expressed by Equation (3), where Ã is the time-integrated radioactivity in the source tissue (rS) and S is the radionuclide-specific dose rate values: (3) D(rT,t)=∑rSÃ(rS,t)×S(rT←rS,t)
The similarity of the biodistribution pattern in human and rat and the homogeneous distribution of radioactivity throughout the organ were two basic assumptions considered when extrapolating rat biodistribution data to the human species for the calculation of the absorbed and total effective doses. The organ distribution study was conducted for 120 min. The residence time was determined using the trapezoidal rule, wherein the area from the injection time to the termination time was calculated. […] The values were higher for male animals. This is because the residence time is integrated over the entire tissue using the standardized human dosimetry model of organ volumes, where in the human male model, the muscle volume is around 1.65-times higher than that in the female model (28 vs. 17 kg), and the male model blood volume (5.5 L) is almost 1.5 larger than in the female model (3.8 L). The other tissues are also larger in the male model, but to a lesser extent. During the calculation of the absorbed dose in each tissue (mSv/MBq) by OLINDA, the values are again divided with each tissue’s volume, providing final dose values.
Absorbed doses and total effective doses were calculated using residence time values as the input into OLINDA/EXM 1.1, the MIRD scheme of an adult (70 kg) and recommended tissue weighting factors from the International Commission on Radiological Protection (ICRP, 2007). The absorbed doses (mGy/MBq) and total effective doses (mSv/MBq) obtained from OLINDA/EXM 1.1 calculations are presented in Table 2. […]

[4] = Uptake in most of the vital organs, including heart and lung (SUV)
[5] = Uptake in small and large intestines (SUV)

Row | Structure (SMILES) | SUV ([1]; Kidney uptake (SUV)) [SUV] | SUV [1, 4] [SUV] | SUV [1, 5] [SUV] | SUV ([1]; Uptake in the brain (SUV)) [SUV] | SUV at 2 h [1] [SUV] | Uptake in most of the organs (SUV) [1] | Share of radioactivity accounted for by the single exponential blood clearance phase [2] | Effective dose per administration [3] | Estimated absorbed dose, Breasts [3] [mGy/MBq] | Estimated absorbed dose, Uterus [3] [mGy/MBq] | Highest organ absorbed dose (kidneys) [3] [mGy/MBq] | Kidney absorbed dose as share of maximum allowed dose of 50 mGy to a single organ [3] | PET examinations per year before reaching the red marrow limiting dose [3] | Radioactivity before reaching the red marrow limiting dose [3] | Radioactivity that could be administered per year if limited by kidney dose [3] | Total dose per examination (PET plus CT) [3] | also measured
1 | CSCC[C@@H]1NC(=O)[C@H](C(C)C)NC(=O)[C@H](CCCNC(=N)N)NC(=O)CNC(=O)[C@@H]2CCCN2C(=O)[C@@H](NC(=O)COCCOCCNC(=O)CN2CCN(CC(=O)O)CCN(CC(=O)O)CC2)CSSC[C@@H](C(=O)O)NC(=O)[C@@H]2CCCN2C(=O)CNC(=O)[C@H](CCC(=O)O)NC(=O)[C@H](CC(=O)O)NC(=O)[C@H](CC(=O)O)NC(=O)CNC(=O)[C@H](CC(C)C)NC(=O)[C@H](Cc2c[nH]cn2)NC(=O)[C@H](CC(C)C)NC(=O)CNC(=O)[C@H](Cc2c[nH]cn2)NC1=O [[^68Ga]Ga-NO2A-Col, metal not drawn] ({NOTA-AEEA}-CPGRVMHGLHLGDDEGPC-OH; disulfide 1-18) | > 10 | < 0.5 | < 0.1 | < 0.01 | < 0.1 | below one | over 98% | 0.78–1.64 mSv | 0.016 | 0.019 | 0.1 | about 20% | over 1000 | over 200 GBq | over 1460 MBq | 1.78–2.64 | Absorbed dose in liver and spleen relative to [^68Ga]Ga-NODAGA-Col [3]: two-fold lower; Estimated absorbed dose, Adrenals [3]: 0.009 mGy/MBq
2 | CSCC[C@@H]1NC(=O)[C@H](C(C)C)NC(=O)[C@H](CCCNC(=N)N)NC(=O)CNC(=O)[C@@H]2CCCN2C(=O)[C@@H](NC(=O)COCCOCCNC(=O)CCC(C(=O)O)N2CCN(CC(=O)O)CCN(CC(=O)O)CC2)CSSC[C@@H](C(=O)O)NC(=O)[C@@H]2CCCN2C(=O)CNC(=O)[C@H](CCC(=O)O)NC(=O)[C@H](CC(=O)O)NC(=O)[C@H](CC(=O)O)NC(=O)CNC(=O)[C@H](CC(C)C)NC(=O)[C@H](Cc2c[nH]cn2)NC(=O)[C@H](CC(C)C)NC(=O)CNC(=O)[C@H](Cc2c[nH]cn2)NC1=O (some centres unmarked) [[^68Ga]Ga-NODAGA-Col, metal not drawn] ({NODAGA-AEEA}-CPGRVMHGLHLGDDEGPC-OH; disulfide 1-18) | > 10 | < 0.5 | < 0.1 | < 0.01 | < 0.1 | below one | over 98% | 0.78–1.64 mSv | 0.016 | 0.019 | 0.1 | ~21% | over 1000 | over 200 GBq | over 1460 MBq | 1.78–2.64 | Radioactivity that stayed in liver and spleen [1]: Over 85%; Estimated absorbed dose, Brain [3]: 0.002 mGy/MBq; Estimated absorbed dose, Spleen [3]: 0.011 mGy/MBq; Increase of liver residence time/absorbed dose versus [^68Ga]Ga-NO2A-Col [3]: 100%
